The text below walks through data of US20200255508A1.

The target in test [1] is cynomolgus monkey DLL4 extracellular domain (cynomolgus monkey). As to the kind of experiment: Biacore SPR.
Test [2] concerns the target cyno DLL4-his (cynomolgus monkey). As to the kind of experiment: ELISA on DLL4-his.

Changes are numbered by the printed parent chain.

B1: E9-SE7 (antibody, V domains shown)
VH: EVQLVESGGGLVQPGGSLRLSCAVSGGSISSSSYYWGWIRQAPGKGLEWIGDIYYTGSTYYNPSLKSRVTISVDTSKNSFYLQMNSLRAEDTAVYYCAREDVILRGGSDYWGQGTLVTVSS
VL: EYVLTQSPDFQSVTPKEKVTITCSGQRLGDKYASWYQQKPDQSPKLVIYEDSKRPSGVPSRFSGSNSGDDATLTINSLEAEDAATYYCQAWDRDTGVFGQGTKVEIKR
B1: the dissociation constant (Kd) (in general, the constant that tells how readily two partners part at equilibrium) in test [1] was 7.53 nM. Besides, in test [2], the EC50 – broadly, the midpoint of the concentration-response curve – turned out to be 0.12 nM.

B2: E9-SE2 (antibody, V domains shown)
VH: B1 VH
VL: SYELTQPPSVSVSPGQTASITCSGQRLGDKYASWYQQKPGQSPVLVIYEDSKRPSGIPERFSGSNSGDTATLTISGTQPMDEADYYCQAWDRDTGVFGYGTRVTVLG
As for B2, the Kd in test [1] came to 3.68 nM. In test [2], the 50% effective concentration (EC50) turned out to be 0.14 nM.

B3: E9-SE5 (antibody, V domains shown)
VH: EVQLQESGPGLVKPSETLSLTCTVSGGSISSSSYYWGWIRQPPGKGLEWIGDIYYTGSTYYNPSLKSRVTISVDTSKNQFSLKLSSVTAADTAVYYCAREDVILRGGSDYWGQGTLVTVSS
VL: B1 VL
On to B3, for which the Kd in test [1] is 6.7 nM. The molecule further showed an EC50 in test [2] of 0.13 nM.

B4: E9-SE1 (antibody, V domains shown)
VH: B1 VH
VL: B2 VL with S1L, E3V, P79T, Y86L, Y99G, R102K
In test [1], B4 yielded a Kd of 5.42 nM. Also, the EC50 in test [2] was 0.14 nM.

B5: E9-SE8 (antibody, V domains shown)
VH: B3 VH with S15G, P42A, S81Y, T88R, A90E
VL: B1 VL
B5 registered a Kd in test [1] of 3.41 nM. Besides, in test [2], the EC50 came to 0.14 nM.

B6: E9.4 (antibody, V domains shown)
VH: B3 VH with E100Y, I103S, R105G, G107S, Y110H
VL: SYELTQPPSVSVSPGQTASITCSGQRLGDKYASWYQQKPGQSPVLVIYEDSKRPSGIPERFSGSNSGDTATLTISGTQPMDEADYYCQAWDRDTGVFGYGTKVTVL
For the molecule B6, in test [1], the dissociation constant Kd was 0.25 nM; the off-rate constant (koff) (usually the rate constant with which the complex falls apart) amounted to 3.44e-05 s⁻¹; the association rate constant (kon) (in general, the second-order rate constant of association) is 137000 M⁻¹ s⁻¹.

B7: E9-SE6 (antibody, V domains shown)
VH: B3 VH with S15G, P42A, S81Y, T88R, A90E
VL: B2 VL with S1L, E3V, P79T, Y86L, Y99G, R102K
Molecule B7 gave a dissociation constant Kd in test [1] of 6.55 nM. Moreover, the EC50 in test [2] is 0.13 nM.

B8: E9.14 (antibody, V domains shown)
VH: B3 VH with S31N, S33R, Y35H, P42S, A90E
VL: B6 VL
In test [1], B8 gave a Kd of 6.75 nM, an off-rate (koff) of 0.000386 s⁻¹ and a kon of 57200 M⁻¹ s⁻¹.

B9: E9.65 (antibody, V domains shown)
VH: B3 VH with S30R, S31N, S33R, Y35H, S67G
VL: B6 VL
In test [1], B9 had a Kd of 12.9 nM, a koff of 0.000414 s⁻¹ and a kon of 32100 M⁻¹ s⁻¹.

B10: E9.48 (antibody, V domains shown)
VH: B3 VH with S33G, Y54N, T56R
VL: B6 VL
In test [1], B10 returned a Kd of 4.71 nM, a koff of 7.91e-05 s⁻¹ and an association rate constant (kon) of 16800 M⁻¹ s⁻¹.

B11: E9.18 (antibody, V domains shown)
VH: B3 VH with S33G, Y54N, T56A
VL: B6 VL
Take B11: in test [1], the Kd was 1 nM, the koff was determined as 2.63e-05 s⁻¹ and the kon worked out at 26300 M⁻¹ s⁻¹.

B12: E9.22 (antibody, V domains shown)
VH: B3 VH with S31N, S33R, Y35H, S67G
VL: B6 VL
In test [1], B12 showed a dissociation constant Kd of 6.26 nM, a koff of 0.000352 s⁻¹ and an on-rate constant (kon) of 56200 M⁻¹ s⁻¹.

B13: E9.13 (antibody, V domains shown)
VH: B3 VH
VL: B6 VL with Q25D, R26T, A32V, K52E, R92S, D93E, Y99S
In the case of B13, in test [1], the dissociation constant (Kd) stood at 0.63 nM, the off-rate constant (koff) was found to be 4.95e-05 s⁻¹ and the kon was found to be 79200 M⁻¹ s⁻¹.

B14: E9.38 (antibody, V domains shown)
VH: B3 VH
VL: B6 VL with A32V, T94V, Y99S
As to B14, in test [1], the Kd was 1.44 nM, the koff came out at 3.47e-05 s⁻¹ and the kon came out at 24200 M⁻¹ s⁻¹.

B15: E9.11 (antibody, V domains shown)
VH: B3 VH with D101A, I103P, R105G
VL: B6 VL
For the molecule B15, in test [1], the equilibrium dissociation constant (Kd) stood at 0.17 nM, the off-rate constant (koff) worked out at 8.9e-06 s⁻¹ and the kon came out at 53100 M⁻¹ s⁻¹.

B16: E9.16 (antibody, V domains shown)
VH: B3 VH
VL: B6 VL with Q25E, A32V, S51F
As for B16, in test [1], the Kd is 1.52 nM, the koff was 3.79e-05 s⁻¹ and the on-rate constant (kon) was 24900 M⁻¹ s⁻¹.

B17: E9.66 (antibody, V domains shown)
VH: B3 VH with D101G, I103P, R105G, S108A, Y110K
VL: B6 VL
Regarding B17, in test [1], the dissociation constant Kd stood at 0.14 nM, the off-rate (koff) is 9.1e-06 s⁻¹ and the on-rate constant (kon) was determined as 65500 M⁻¹ s⁻¹.

B18: E9-SE4 (antibody, V domains shown)
VH: B3 VH
VL: B2 VL with S1L, E3V, P79T, Y86L, Y99G, R102K
Turning to B18, the dissociation constant Kd in test [1] stood at 3.92 nM. The same molecule had a 50% effective concentration (EC50) in test [2] of 0.14 nM.

B19: E9-SE3 (antibody, V domains shown)
VH: B3 VH with S15G, P42A, S81Y, T88R, A90E
VL: B2 VL
Molecule B19 yielded an equilibrium dissociation constant (Kd) in test [1] of 3.42 nM. In addition, in test [2], the half-maximal effective concentration (EC50) was 0.14 nM.

B20: E9.17 (antibody, V domains shown)
VH: B3 VH with D101E, V102A, R105G
VL: B6 VL
On to B20, for which, in test [1], the Kd is 0.16 nM, the koff was 1.23e-05 s⁻¹ and the on-rate constant (kon) was 75100 M⁻¹ s⁻¹.
